Consider one substance from US20170335333.

The subject of series [1] is McsS-YebF fusion peptide.
Series [2] concerns Microcin S peptide.

Consider Microcin immunity protein (mcsI), for which the “OD600 growth of E. coli Top10 after induction with 0.125% v/v L-arabinose” value in series [1] was “the OD600 reading was restored significantly compared to the un-induced and control cultures”; in series [2] it was “the OD600 reading was restored significantly compared to the un-induced and control cultures”.
